Results taken from US20250327097A1, “ORGANISMS PRODUCING LESS CROTONIC ACID” (Global Bioenergies, priority 2021, published 2025).

tested on: 3-methylcrotonic acid; type: biochemical, Yersinia frederiksenii; design: key: “+” representing a low increase in activity; “++++” representing a high increase in activity

Molecule	Activity relative to WT
P284E-N388M-K394R-C430N-L432F-L434W-S436N (protein) MFLKSLREQINLLKRQGDLRIINRPVDSYLEAAAIIRRSTETKAPVPLMTNIKGYPGCSIVGGLAALSSNPEYPLSRVAMSLGLSTTASAQSIVQYLIDGLKKTPYLPVEIDSNSAPCKQNILRGEDASLAHFPIPQVHQHDGNRYVNTWGVFIVESPDGQWCNWSIQRVQYLNDRQMIALVFPSQHISDIWEEWVKIGKPMPYALVQGCEPIVPYIAGLPLLERNVNEAEYIGALYGKGIEVVKCETHDLRVPASSEVVIEGYFAITREGVEGPFGEFAGYIENENSLQPILSITAISWQDDPIWPVVAEGKPVDEYHTCSGIGDAAAIQNVLLTANLPVSFVWVPLYSACHLMIVSINRHWRQTHPDLTSEQLTKKVGDVIHQTRMSIKLPRIVVLDDDVDPADTESLLWALATRIHPERKRYFYESNIFPWLNCYSEEERHNRKGKRVIIDALLPENHGAISSFDYAYPDDIKQRVLMHWETDFSHD	+
I283T-N285P-N287T-Q290E-S322T-N388M-K394R-E421F-C430A-L432F-L434W-S436N-dG462 (protein) MFLKSLREQINLLKRQGDLRIINRPVDSYLEAAAIIRRSTETKAPVPLMTNIKGYPGCSIVGGLAALSSNPEYPLSRVAMSLGLSTTASAQSIVQYLIDGLKKTPYLPVEIDSNSAPCKQNILRGEDASLAHFPIPQVHQHDGNRYVNTWGVFIVESPDGQWCNWSIQRVQYLNDRQMIALVFPSQHISDIWEEWVKIGKPMPYALVQGCEPIVPYIAGLPLLERNVNEAEYIGALYGKGIEVVKCETHDLRVPASSEVVIEGYFAITREGVEGPFGEFAGYTPPETSLEPILSITAISWQDDPIWPVVAEGKPVDEYHTCTGIGDAAAIQNVLLTANLPVSFVWVPLYSACHLMIVSINRHWRQTHPDLTSEQLTKKVGDVIHQTRMSIKLPRIVVLDDDVDPADTESLLWALATRIHPFRKRYFYESAIFPWLNCYSEEERHNRKGKRVIIDALLPENHGAISSFDYAYPDDIKQRVLMHWETDFSHD	++++
I283T-N285P-N287T-Q290E-S322T-N388M-K394R-i421aD-C430A-L432F-L434W-S436N-dG462 (protein) MFLKSLREQINLLKRQGDLRIINRPVDSYLEAAAIIRRSTETKAPVPLMTNIKGYPGCSIVGGLAALSSNPEYPLSRVAMSLGLSTTASAQSIVQYLIDGLKKTPYLPVEIDSNSAPCKQNILRGEDASLAHFPIPQVHQHDGNRYVNTWGVFIVESPDGQWCNWSIQRVQYLNDRQMIALVFPSQHISDIWEEWVKIGKPMPYALVQGCEPIVPYIAGLPLLERNVNEAEYIGALYGKGIEVVKCETHDLRVPASSEVVIEGYFAITREGVEGPFGEFAGYTPPETSLEPILSITAISWQDDPIWPVVAEGKPVDEYHTCTGIGDAAAIQNVLLTANLPVSFVWVPLYSACHLMIVSINRHWRQTHPDLTSEQLTKKVGDVIHQTRMSIKLPRIVVLDDDVDPADTESLLWALATRIHPERKRYFYESAIFPWLNCYSEEERHNRKGKRVIIDALLPENHGAISSFDYAYPDDIKQRVLMHWETDFSHD	++++
I283T-N285P-N287T-Q290E-S322T-N388M-K394R-i421aT-C430A-L432F-L434W-S436N-dG462 (protein) MFLKSLREQINLLKRQGDLRIINRPVDSYLEAAAIIRRSTETKAPVPLMTNIKGYPGCSIVGGLAALSSNPEYPLSRVAMSLGLSTTASAQSIVQYLIDGLKKTPYLPVEIDSNSAPCKQNILRGEDASLAHFPIPQVHQHDGNRYVNTWGVFIVESPDGQWCNWSIQRVQYLNDRQMIALVFPSQHISDIWEEWVKIGKPMPYALVQGCEPIVPYIAGLPLLERNVNEAEYIGALYGKGIEVVKCETHDLRVPASSEVVIEGYFAITREGVEGPFGEFAGYTPPETSLEPILSITAISWQDDPIWPVVAEGKPVDEYHTCTGIGDAAAIQNVLLTANLPVSFVWVPLYSACHLMIVSINRHWRQTHPDLTSEQLTKKVGDVIHQTRMSIKLPRIVVLDDDVDPADTESLLWALATRIHPERKRYFYESAIFPWLNCYSEEERHNRKGKRVIIDALLPENHGAISSFDYAYPDDIKQRVLMHWETDFSHD	++++
I283T-N285P-N287T-Q290E-S322T-N388M-K394R-i421aS-C430A-L432F-L434W-S436N-dG462 (protein) MFLKSLREQINLLKRQGDLRIINRPVDSYLEAAAIIRRSTETKAPVPLMTNIKGYPGCSIVGGLAALSSNPEYPLSRVAMSLGLSTTASAQSIVQYLIDGLKKTPYLPVEIDSNSAPCKQNILRGEDASLAHFPIPQVHQHDGNRYVNTWGVFIVESPDGQWCNWSIQRVQYLNDRQMIALVFPSQHISDIWEEWVKIGKPMPYALVQGCEPIVPYIAGLPLLERNVNEAEYIGALYGKGIEVVKCETHDLRVPASSEVVIEGYFAITREGVEGPFGEFAGYTPPETSLEPILSITAISWQDDPIWPVVAEGKPVDEYHTCTGIGDAAAIQNVLLTANLPVSFVWVPLYSACHLMIVSINRHWRQTHPDLTSEQLTKKVGDVIHQTRMSIKLPRIVVLDDDVDPADTESLLWALATRIHPERKRYFYESAIFPWLNCYSEEERHNRKGKRVIIDALLPENHGAISSFDYAYPDDIKQRVLMHWETDFSHD	++++
I283T-N285P-N287T-Q290E-S322T-N388M-K394R-i421aI-C430A-L432F-L434W-S436N-dG462 (protein) MFLKSLREQINLLKRQGDLRIINRPVDSYLEAAAIIRRSTETKAPVPLMTNIKGYPGCSIVGGLAALSSNPEYPLSRVAMSLGLSTTASAQSIVQYLIDGLKKTPYLPVEIDSNSAPCKQNILRGEDASLAHFPIPQVHQHDGNRYVNTWGVFIVESPDGQWCNWSIQRVQYLNDRQMIALVFPSQHISDIWEEWVKIGKPMPYALVQGCEPIVPYIAGLPLLERNVNEAEYIGALYGKGIEVVKCETHDLRVPASSEVVIEGYFAITREGVEGPFGEFAGYTPPETSLEPILSITAISWQDDPIWPVVAEGKPVDEYHTCTGIGDAAAIQNVLLTANLPVSFVWVPLYSACHLMIVSINRHWRQTHPDLTSEQLTKKVGDVIHQTRMSIKLPRIVVLDDDVDPADTESLLWALATRIHPERKRYFYESAIFPWLNCYSEEERHNRKGKRVIIDALLPENHGAISSFDYAYPDDIKQRVLMHWETDFSHD	++++
I283T-N285P-N287T-Q290E-S322T-N388M-K394R-i421aE-C430A-L432F-L434W-S436N-dG462 (protein) MFLKSLREQINLLKRQGDLRIINRPVDSYLEAAAIIRRSTETKAPVPLMTNIKGYPGCSIVGGLAALSSNPEYPLSRVAMSLGLSTTASAQSIVQYLIDGLKKTPYLPVEIDSNSAPCKQNILRGEDASLAHFPIPQVHQHDGNRYVNTWGVFIVESPDGQWCNWSIQRVQYLNDRQMIALVFPSQHISDIWEEWVKIGKPMPYALVQGCEPIVPYIAGLPLLERNVNEAEYIGALYGKGIEVVKCETHDLRVPASSEVVIEGYFAITREGVEGPFGEFAGYTPPETSLEPILSITAISWQDDPIWPVVAEGKPVDEYHTCTGIGDAAAIQNVLLTANLPVSFVWVPLYSACHLMIVSINRHWRQTHPDLTSEQLTKKVGDVIHQTRMSIKLPRIVVLDDDVDPADTESLLWALATRIHPERKRYFYESAIFPWLNCYSEEERHNRKGKRVIIDALLPENHGAISSFDYAYPDDIKQRVLMHWETDFSHD	++++
I283T-N285P-N287T-Q290E-S322T-N388M-K394R-i421aR-C430A-L432F-L434W-S436N-dG462 (protein) MFLKSLREQINLLKRQGDLRIINRPVDSYLEAAAIIRRSTETKAPVPLMTNIKGYPGCSIVGGLAALSSNPEYPLSRVAMSLGLSTTASAQSIVQYLIDGLKKTPYLPVEIDSNSAPCKQNILRGEDASLAHFPIPQVHQHDGNRYVNTWGVFIVESPDGQWCNWSIQRVQYLNDRQMIALVFPSQHISDIWEEWVKIGKPMPYALVQGCEPIVPYIAGLPLLERNVNEAEYIGALYGKGIEVVKCETHDLRVPASSEVVIEGYFAITREGVEGPFGEFAGYTPPETSLEPILSITAISWQDDPIWPVVAEGKPVDEYHTCTGIGDAAAIQNVLLTANLPVSFVWVPLYSACHLMIVSINRHWRQTHPDLTSEQLTKKVGDVIHQTRMSIKLPRIVVLDDDVDPADTESLLWALATRIHPERKRYFYESAIFPWLNCYSEEERHNRKGKRVIIDALLPENHGAISSFDYAYPDDIKQRVLMHWETDFSHD	++++
I283T-N285P-N287T-Q290E-S322T-N388M-K394R-i421aP-C430A-L432F-L434W-S436N-dG462 (protein) MFLKSLREQINLLKRQGDLRIINRPVDSYLEAAAIIRRSTETKAPVPLMTNIKGYPGCSIVGGLAALSSNPEYPLSRVAMSLGLSTTASAQSIVQYLIDGLKKTPYLPVEIDSNSAPCKQNILRGEDASLAHFPIPQVHQHDGNRYVNTWGVFIVESPDGQWCNWSIQRVQYLNDRQMIALVFPSQHISDIWEEWVKIGKPMPYALVQGCEPIVPYIAGLPLLERNVNEAEYIGALYGKGIEVVKCETHDLRVPASSEVVIEGYFAITREGVEGPFGEFAGYTPPETSLEPILSITAISWQDDPIWPVVAEGKPVDEYHTCTGIGDAAAIQNVLLTANLPVSFVWVPLYSACHLMIVSINRHWRQTHPDLTSEQLTKKVGDVIHQTRMSIKLPRIVVLDDDVDPADTESLLWALATRIHPERKRYFYESAIFPWLNCYSEEERHNRKGKRVIIDALLPENHGAISSFDYAYPDDIKQRVLMHWETDFSHD	++++
I283T-N285P-N287T-Q290E-S322T-N388M-K394R-i424aA-C430A-L432F-L434W-S436N-dG462 (protein) MFLKSLREQINLLKRQGDLRIINRPVDSYLEAAAIIRRSTETKAPVPLMTNIKGYPGCSIVGGLAALSSNPEYPLSRVAMSLGLSTTASAQSIVQYLIDGLKKTPYLPVEIDSNSAPCKQNILRGEDASLAHFPIPQVHQHDGNRYVNTWGVFIVESPDGQWCNWSIQRVQYLNDRQMIALVFPSQHISDIWEEWVKIGKPMPYALVQGCEPIVPYIAGLPLLERNVNEAEYIGALYGKGIEVVKCETHDLRVPASSEVVIEGYFAITREGVEGPFGEFAGYTPPETSLEPILSITAISWQDDPIWPVVAEGKPVDEYHTCTGIGDAAAIQNVLLTANLPVSFVWVPLYSACHLMIVSINRHWRQTHPDLTSEQLTKKVGDVIHQTRMSIKLPRIVVLDDDVDPADTESLLWALATRIHPERKRYFYESAIFPWLNCYSEEERHNRKGKRVIIDALLPENHGAISSFDYAYPDDIKQRVLMHWETDFSHD	++++
